Test results: article PMC9482650, “Quantitative fragmentomics allow affinity mapping of interactomes” (Nature Communications, 2022)

Legend:
Experiment in all cases: holdup assay
Parameters in all cases: key: below the threshold = too weak to quantify, mostly under pKd 3.1 to 4
TJP2_1, Q9UDY2 = target: TJP2_1, Q9UDY2
PTPN3, P26045 = target: PTPN3, P26045
DFNB31_1, Q9P202 = target: T1, DFNB31_1, Q9P202
T1 sequence (Q9P202 135-233, limits assumed, looked up): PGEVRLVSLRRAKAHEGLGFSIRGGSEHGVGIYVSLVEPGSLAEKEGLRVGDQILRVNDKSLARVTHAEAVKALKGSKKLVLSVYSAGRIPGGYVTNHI

TIAM2, Q8IVF5 = target: T2, TIAM2, Q8IVF5
T2 sequence (Q8IVF5 885-986, limits assumed, looked up): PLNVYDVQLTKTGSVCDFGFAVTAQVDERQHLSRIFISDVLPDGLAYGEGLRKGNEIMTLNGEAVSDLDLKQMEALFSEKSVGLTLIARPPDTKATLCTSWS

Inadl_6, Q8NI35 = target: Inadl_6, Q8NI35
DLG1_1, Q12959 = target: DLG1_1, Q12959
DVL3, Q92997 = target: T3, DVL3, Q92997
T3 sequence (Q92997 244-331, limits assumed, looked up): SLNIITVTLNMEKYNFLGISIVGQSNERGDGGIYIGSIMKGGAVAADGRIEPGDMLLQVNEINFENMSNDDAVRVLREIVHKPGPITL

DFNB31_3, Q9P202 = target: T4, DFNB31_3, Q9P202
T4 sequence (Q9P202 811-907, limits assumed, looked up): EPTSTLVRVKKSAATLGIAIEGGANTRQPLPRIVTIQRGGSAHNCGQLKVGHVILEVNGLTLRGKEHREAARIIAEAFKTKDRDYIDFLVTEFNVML

RHPN1, Q8TCX5 = target: T5, RHPN1, Q8TCX5
T5 sequence (Q8TCX5 508-602, limits assumed, looked up): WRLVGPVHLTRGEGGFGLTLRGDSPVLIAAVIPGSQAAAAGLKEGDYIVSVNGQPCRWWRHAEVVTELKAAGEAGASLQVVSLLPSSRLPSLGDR

MAGI2_5, Q86UL8 = target: MAGI2_5, Q86UL8
NHERF2_2, Q15599 = target: NHERF2_2, Q15599
SCRIB_3, Q14160 = target: SCRIB_3, Q14160
MAGI1_2, Q96QZ7 = target: MAGI1_2, Q96QZ7
FRMPD3, Q5JV73 = target: FRMPD3, Q5JV73
GRIP1_7, Q9Y3R0 = target: T6, GRIP1_7, Q9Y3R0
T6 sequence (Q9Y3R0 999-1096, limits assumed, looked up): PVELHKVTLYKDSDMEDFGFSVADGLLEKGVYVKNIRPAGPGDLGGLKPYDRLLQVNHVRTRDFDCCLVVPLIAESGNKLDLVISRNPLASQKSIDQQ

DLG1_2, Q12959 = target: DLG1_2, Q12959
LNX2_3, Q8N448 = target: T7, LNX2_3, Q8N448
T7 sequence (Q8N448 463-564, limits assumed, looked up): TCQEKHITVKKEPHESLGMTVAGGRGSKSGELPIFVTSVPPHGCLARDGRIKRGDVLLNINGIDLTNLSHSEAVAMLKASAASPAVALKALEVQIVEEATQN

PCLO, Q9Y6V0 = target: T8, PCLO, Q9Y6V0
T8 sequence (Q9Y6V0 4491-4600, limits assumed, looked up): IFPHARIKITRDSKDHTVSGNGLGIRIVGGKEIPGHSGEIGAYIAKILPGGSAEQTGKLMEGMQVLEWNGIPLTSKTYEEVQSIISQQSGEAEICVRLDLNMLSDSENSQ

Inadl_10, Q8NI35 = target: Inadl_10, Q8NI35
CARD11, Q9BXL7 = target: T9, CARD11, Q9BXL7
T9 sequence (Q9BXL7 662-765, limits assumed, looked up): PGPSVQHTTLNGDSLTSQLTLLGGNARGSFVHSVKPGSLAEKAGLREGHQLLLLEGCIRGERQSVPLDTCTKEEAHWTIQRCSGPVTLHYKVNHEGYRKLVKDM

CASK, O14936 = target: CASK, O14936
GRIP1_3, Q9Y3R0 = target: T10, GRIP1_3, Q9Y3R0
T10 sequence (Q9Y3R0 247-346, limits assumed, looked up): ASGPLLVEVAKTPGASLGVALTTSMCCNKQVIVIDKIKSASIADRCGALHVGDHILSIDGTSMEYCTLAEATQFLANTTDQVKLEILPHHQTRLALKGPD

GRID2IP_2, A4D2P6 = target: GRID2IP_2, A4D2P6
MAGI2_3, Q86UL8 = target: MAGI2_3, Q86UL8
DLG4_3, P78352 = target: DLG4_3, P78352
MAST1, Q9Y2H9 = target: MAST1, Q9Y2H9
DLG3_3, Q92796 = target: T11, DLG3_3, Q92796; conditions: plain residues with an end cap or a label only (N-terminal biotin on a linker: ttds)
T11 sequence (Q92796 374-475, limits assumed, looked up): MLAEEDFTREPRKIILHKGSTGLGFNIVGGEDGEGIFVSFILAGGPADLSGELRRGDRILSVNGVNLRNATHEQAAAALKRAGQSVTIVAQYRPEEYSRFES

[1] = plain residues with an end cap or a label only (N-terminal biotin on a linker: ahx)
[2] = plain residues with an end cap or a label only (N-terminal biotin on a linker: ttds)

FRMPD3, Q5JV73, sequence (Q5JV73 12-100): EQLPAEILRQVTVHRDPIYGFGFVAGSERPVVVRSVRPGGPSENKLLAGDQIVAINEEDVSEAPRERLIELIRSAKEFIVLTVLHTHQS
TJP2_1, Q9UDY2, sequence (Q9UDY2 24-128): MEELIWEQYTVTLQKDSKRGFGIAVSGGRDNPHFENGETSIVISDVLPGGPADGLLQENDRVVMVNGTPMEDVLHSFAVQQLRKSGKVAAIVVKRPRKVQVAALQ
CASK, O14936, sequence (O14936 487-570): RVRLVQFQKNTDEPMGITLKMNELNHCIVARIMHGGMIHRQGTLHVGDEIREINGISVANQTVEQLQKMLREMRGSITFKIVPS
GRID2IP_2, A4D2P6, sequence (A4D2P6 272-370): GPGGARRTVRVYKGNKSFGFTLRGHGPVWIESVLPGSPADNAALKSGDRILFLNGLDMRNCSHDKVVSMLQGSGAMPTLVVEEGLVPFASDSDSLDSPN
Inadl_10, Q8NI35, sequence (Q8NI35 1673-1763): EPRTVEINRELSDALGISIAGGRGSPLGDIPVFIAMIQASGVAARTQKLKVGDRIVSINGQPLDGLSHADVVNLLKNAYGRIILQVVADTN
DLG4_3, P78352, sequence (P78352 306-403): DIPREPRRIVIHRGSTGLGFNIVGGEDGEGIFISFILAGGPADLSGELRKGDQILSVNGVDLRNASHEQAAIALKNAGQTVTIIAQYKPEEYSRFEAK
NHERF2_2, Q15599, sequence (Q15599 142-238): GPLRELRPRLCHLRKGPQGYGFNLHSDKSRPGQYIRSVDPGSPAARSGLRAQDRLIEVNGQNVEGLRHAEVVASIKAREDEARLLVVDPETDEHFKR
Inadl_6, Q8NI35, sequence (Q8NI35 1058-1167): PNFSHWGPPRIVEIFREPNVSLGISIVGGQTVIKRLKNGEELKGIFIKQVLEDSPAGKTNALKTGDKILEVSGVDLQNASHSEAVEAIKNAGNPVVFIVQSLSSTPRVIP
MAGI1_2, Q96QZ7, sequence (Q96QZ7 456-580): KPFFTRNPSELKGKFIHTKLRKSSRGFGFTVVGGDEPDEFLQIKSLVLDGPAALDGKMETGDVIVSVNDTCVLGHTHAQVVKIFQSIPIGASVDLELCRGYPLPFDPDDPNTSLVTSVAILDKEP
SCRIB_3, Q14160, sequence (Q14160 999-1103): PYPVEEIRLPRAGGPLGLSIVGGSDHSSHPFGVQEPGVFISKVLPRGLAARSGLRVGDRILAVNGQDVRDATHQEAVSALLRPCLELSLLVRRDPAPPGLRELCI
MAST1, Q9Y2H9, sequence (Q9Y2H9 962-1065): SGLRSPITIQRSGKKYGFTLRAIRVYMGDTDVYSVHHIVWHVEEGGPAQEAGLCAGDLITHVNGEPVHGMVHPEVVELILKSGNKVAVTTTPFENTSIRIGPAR
PTPN3, P26045, sequence (P26045 505-587): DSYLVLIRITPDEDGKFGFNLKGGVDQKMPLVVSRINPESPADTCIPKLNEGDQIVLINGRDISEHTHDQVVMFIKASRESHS
MAGI2_5, Q86UL8, sequence (Q86UL8 915-1017): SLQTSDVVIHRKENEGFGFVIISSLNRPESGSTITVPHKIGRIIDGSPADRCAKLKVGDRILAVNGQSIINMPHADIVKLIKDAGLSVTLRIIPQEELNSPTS
MAGI2_3, Q86UL8, sequence (Q86UL8 600-682): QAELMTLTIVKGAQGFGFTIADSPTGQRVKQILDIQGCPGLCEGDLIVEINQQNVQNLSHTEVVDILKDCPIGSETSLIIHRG

B1: GRIN1, Q05586;Q05586-2 (peptide)
chain: LSDPSVSTVV
pKd (TJP2_1, Q9UDY2; [1]): below the threshold
pKd (PTPN3, P26045; [1]): below the threshold
pKd (DFNB31_1, Q9P202; [1]): below the threshold
pKd (TIAM2, Q8IVF5; [1]): below the threshold
pKd (Inadl_6, Q8NI35; [1]): below the threshold
pKd (DLG1_1, Q12959; [1]): 4.06
pKd (DVL3, Q92997; [1]): below the threshold
pKd (DFNB31_3, Q9P202; [1]): below the threshold
pKd (RHPN1, Q8TCX5; [1]): 4.47
pKd (MAGI2_5, Q86UL8; [1]): 4.36
pKd (NHERF2_2, Q15599; [1]): below the threshold
pKd (SCRIB_3, Q14160; [1]): below the threshold
pKd (MAGI1_2, Q96QZ7; [1]): below the threshold
pKd (FRMPD3, Q5JV73; [1]): below the threshold
pKd (GRIP1_7, Q9Y3R0; [1]): below the threshold
pKd (DLG1_2, Q12959; [1]): 4.51
pKd (LNX2_3, Q8N448; [1]): below the threshold
pKd (PCLO, Q9Y6V0; [1]): below the threshold
pKd (Inadl_10, Q8NI35; [1]): below the threshold
pKd (CARD11, Q9BXL7; [1]): below the threshold
pKd (CASK, O14936; [1]): below the threshold
pKd (GRIP1_3, Q9Y3R0; [1]): below the threshold
pKd (GRID2IP_2, A4D2P6; [1]): below the threshold
pKd (MAGI2_3, Q86UL8; [1]): below the threshold
pKd (DLG4_3, P78352; [1]): below the threshold
pKd (MAST1, Q9Y2H9; [1]): below the threshold

B2: HPV35-E6, P27228 (peptide)
chain: SKPTRRETEV
pKd (TJP2_1, Q9UDY2; [2]): below the threshold
pKd (PTPN3, P26045; [2]): 4.93
pKd (DFNB31_1, Q9P202; [2]): below the threshold
pKd (TIAM2, Q8IVF5; [2]): below the threshold
pKd (Inadl_6, Q8NI35; [2]): below the threshold
pKd (DLG1_1, Q12959; [2]): 5.02
pKd (DVL3, Q92997; [2]): below the threshold
pKd (DFNB31_3, Q9P202; [2]): below the threshold
pKd (RHPN1, Q8TCX5; [2]): below the threshold
pKd (MAGI2_5, Q86UL8; [2]): 4.18
pKd (NHERF2_2, Q15599; [2]): below the threshold
pKd (SCRIB_3, Q14160; [2]): 4.89
pKd (MAGI1_2, Q96QZ7; [2]): 5.13
pKd (FRMPD3, Q5JV73; [2]): below the threshold
pKd (GRIP1_7, Q9Y3R0; [2]): below the threshold
pKd (DLG3_3, Q92796): 5.18
pKd (DLG1_2, Q12959; [2]): 5.64
pKd (LNX2_3, Q8N448; [2]): below the threshold
pKd (PCLO, Q9Y6V0; [2]): below the threshold
pKd (Inadl_10, Q8NI35; [2]): below the threshold
pKd (CARD11, Q9BXL7; [2]): below the threshold
pKd (CASK, O14936; [2]): below the threshold
pKd (GRIP1_3, Q9Y3R0; [2]): below the threshold
pKd (GRID2IP_2, A4D2P6; [2]): below the threshold
pKd (MAGI2_3, Q86UL8; [2]): below the threshold
pKd (DLG4_3, P78352; [2]): 5.2
pKd (MAST1, Q9Y2H9; [2]): below the threshold

B3: PPP1R13L, Q8WUF5 (peptide)
chain: PRVKPQRSKV
pKd (TJP2_1, Q9UDY2; [2]): below the threshold
pKd (PTPN3, P26045; [2]): below the threshold
pKd (DFNB31_1, Q9P202; [2]): below the threshold
pKd (TIAM2, Q8IVF5; [2]): below the threshold
pKd (Inadl_6, Q8NI35; [2]): below the threshold
pKd (DLG1_1, Q12959; [2]): below the threshold
pKd (DVL3, Q92997; [2]): below the threshold
pKd (DFNB31_3, Q9P202; [2]): below the threshold
pKd (RHPN1, Q8TCX5; [2]): below the threshold
pKd (MAGI2_5, Q86UL8; [2]): below the threshold
pKd (NHERF2_2, Q15599; [2]): below the threshold
pKd (SCRIB_3, Q14160; [2]): below the threshold
pKd (MAGI1_2, Q96QZ7; [2]): 3.72
pKd (FRMPD3, Q5JV73; [2]): below the threshold
pKd (GRIP1_7, Q9Y3R0; [2]): below the threshold
pKd (DLG3_3, Q92796): below the threshold
pKd (DLG1_2, Q12959; [2]): below the threshold
pKd (LNX2_3, Q8N448; [2]): below the threshold
pKd (PCLO, Q9Y6V0; [2]): below the threshold
pKd (Inadl_10, Q8NI35; [2]): below the threshold
pKd (CARD11, Q9BXL7; [2]): below the threshold
pKd (CASK, O14936; [2]): below the threshold
pKd (GRIP1_3, Q9Y3R0; [2]): below the threshold
pKd (GRID2IP_2, A4D2P6; [2]): 4.51
pKd (MAGI2_3, Q86UL8; [2]): below the threshold
pKd (DLG4_3, P78352; [2]): below the threshold
pKd (MAST1, Q9Y2H9; [2]): 3.71

B4: PLCB4, Q15147 (peptide)
chain: EMDRRPATVV
pKd (TJP2_1, Q9UDY2; [2]): below the threshold
pKd (PTPN3, P26045; [2]): below the threshold
pKd (DFNB31_1, Q9P202; [2]): 3.53
pKd (TIAM2, Q8IVF5; [2]): below the threshold
pKd (DLG1_1, Q12959; [2]): 4.2
pKd (DVL3, Q92997; [2]): below the threshold
pKd (DFNB31_3, Q9P202; [2]): 3.69
pKd (RHPN1, Q8TCX5; [2]): 3.74
pKd (MAGI2_5, Q86UL8; [2]): below the threshold
pKd (NHERF2_2, Q15599; [2]): below the threshold
pKd (SCRIB_3, Q14160; [2]): 4.1
pKd (MAGI1_2, Q96QZ7; [2]): below the threshold
pKd (FRMPD3, Q5JV73; [2]): 3.64
pKd (GRIP1_7, Q9Y3R0; [2]): below the threshold
pKd (DLG3_3, Q92796): 3.78
pKd (LNX2_3, Q8N448; [2]): below the threshold
pKd (PCLO, Q9Y6V0; [2]): 3.71
pKd (CARD11, Q9BXL7; [2]): 3.64
pKd (CASK, O14936; [2]): below the threshold
pKd (GRIP1_3, Q9Y3R0; [2]): below the threshold
pKd (GRID2IP_2, A4D2P6; [2]): 3.93
pKd (MAGI2_3, Q86UL8; [2]): below the threshold
pKd (DLG4_3, P78352; [2]): 3.95
pKd (MAST1, Q9Y2H9; [2]): 4.48

B5: ARHGEF7, Q14155;Q14155-1 (peptide)
chain: NDPAWDETNL
pKd (TJP2_1, Q9UDY2; [2]): below the threshold
pKd (PTPN3, P26045; [2]): 4.44
pKd (DFNB31_1, Q9P202; [2]): 4.07
pKd (TIAM2, Q8IVF5; [2]): below the threshold
pKd (Inadl_6, Q8NI35; [2]): 4.09
pKd (DLG1_1, Q12959; [2]): below the threshold
pKd (DVL3, Q92997; [2]): below the threshold
pKd (DFNB31_3, Q9P202; [2]): below the threshold
pKd (RHPN1, Q8TCX5; [2]): 4.6
pKd (MAGI2_5, Q86UL8; [2]): below the threshold
pKd (NHERF2_2, Q15599; [2]): 4.81
pKd (SCRIB_3, Q14160; [2]): 5.08
pKd (MAGI1_2, Q96QZ7; [2]): below the threshold
pKd (GRIP1_7, Q9Y3R0; [2]): below the threshold
pKd (DLG3_3, Q92796): below the threshold
pKd (DLG1_2, Q12959; [2]): below the threshold
pKd (LNX2_3, Q8N448; [2]): below the threshold
pKd (PCLO, Q9Y6V0; [2]): below the threshold
pKd (Inadl_10, Q8NI35; [2]): below the threshold
pKd (CARD11, Q9BXL7; [2]): below the threshold
pKd (CASK, O14936; [2]): below the threshold
pKd (GRIP1_3, Q9Y3R0; [2]): below the threshold
pKd (MAGI2_3, Q86UL8; [2]): below the threshold
pKd (DLG4_3, P78352; [2]): below the threshold
pKd (MAST1, Q9Y2H9; [2]): 4.92
